Test results taken from PMC8208711.

Molecular target: human wild-type full-length CC chemokine receptor 5 (CCR5) (human) (UniProt P51681)

Ca2+ flux in HEK-CCR5 cells, decrease of Emax against [6P4]CCL5 [%] | Substance
30 | [6P4]CCL5 D5A (ligand)
60 | [6P4]CCL5 D5K (ligand)
